Data: patent publication US20210403549A1 (YALE UNIVERSITY, published 2021)
fluorescein = fluorescein (fluorescent label)

What was measured:
[1] = molecular target: T1, ALK1-fragment crystallizable region (Fc), wild type ALK1 ectodomain (human, UniProt P37023 22-118); assay: substitution analysis of the 15mer peptide
T1 construct: also called ALK1-Fc; ALK1^ecto-Fc; not shown: Fc tag
Description: FIG. 7 depicts structure function analysis of Site 1. Site 1 was interrogated as a major N-terminal binding site for ALK1 on ApoB 100.

[2] = molecular target: T1, ALK1-fragment crystallizable region …; assay: ApoB100 peptide array, fluorescence
Experimental: FIG. 6 depicts mapping of ALK1 binding to ApoB100- In order to identify binding sites that mediate the interaction of ALK1 with the core LDL protein, Apo B100, peptide mapping experiments were performed. 4,563 different peptides (15 AA in length overlapped by 14AA) derived from the human ApoB100 sequence were arrayed and incubated with a control-Fc, and ALK1-Fc and binding events measurement by fluorescence. […] The AA sequence of binding for site 1 is SEQ ID NO: 4 QDDCTGDED, site 4 is SEQ ID NO: 5 […] and site 5 is SEQ ID NO: 6 HRDFSAEYEED.

[3] = molecular target: T2, low density lipoprotein (LDL) (UniProt P04114 28-4563); assay: SPR, LDL immobilized, Fc-tagged ectodomain as analyte; LDLR ectodomain as analyte
T2 construct: Lipoprotein particle, not a pure protein; also called DiI-LDL (fluorescently labeled)
T2 sequence (P04114 28-4563 limits assumed): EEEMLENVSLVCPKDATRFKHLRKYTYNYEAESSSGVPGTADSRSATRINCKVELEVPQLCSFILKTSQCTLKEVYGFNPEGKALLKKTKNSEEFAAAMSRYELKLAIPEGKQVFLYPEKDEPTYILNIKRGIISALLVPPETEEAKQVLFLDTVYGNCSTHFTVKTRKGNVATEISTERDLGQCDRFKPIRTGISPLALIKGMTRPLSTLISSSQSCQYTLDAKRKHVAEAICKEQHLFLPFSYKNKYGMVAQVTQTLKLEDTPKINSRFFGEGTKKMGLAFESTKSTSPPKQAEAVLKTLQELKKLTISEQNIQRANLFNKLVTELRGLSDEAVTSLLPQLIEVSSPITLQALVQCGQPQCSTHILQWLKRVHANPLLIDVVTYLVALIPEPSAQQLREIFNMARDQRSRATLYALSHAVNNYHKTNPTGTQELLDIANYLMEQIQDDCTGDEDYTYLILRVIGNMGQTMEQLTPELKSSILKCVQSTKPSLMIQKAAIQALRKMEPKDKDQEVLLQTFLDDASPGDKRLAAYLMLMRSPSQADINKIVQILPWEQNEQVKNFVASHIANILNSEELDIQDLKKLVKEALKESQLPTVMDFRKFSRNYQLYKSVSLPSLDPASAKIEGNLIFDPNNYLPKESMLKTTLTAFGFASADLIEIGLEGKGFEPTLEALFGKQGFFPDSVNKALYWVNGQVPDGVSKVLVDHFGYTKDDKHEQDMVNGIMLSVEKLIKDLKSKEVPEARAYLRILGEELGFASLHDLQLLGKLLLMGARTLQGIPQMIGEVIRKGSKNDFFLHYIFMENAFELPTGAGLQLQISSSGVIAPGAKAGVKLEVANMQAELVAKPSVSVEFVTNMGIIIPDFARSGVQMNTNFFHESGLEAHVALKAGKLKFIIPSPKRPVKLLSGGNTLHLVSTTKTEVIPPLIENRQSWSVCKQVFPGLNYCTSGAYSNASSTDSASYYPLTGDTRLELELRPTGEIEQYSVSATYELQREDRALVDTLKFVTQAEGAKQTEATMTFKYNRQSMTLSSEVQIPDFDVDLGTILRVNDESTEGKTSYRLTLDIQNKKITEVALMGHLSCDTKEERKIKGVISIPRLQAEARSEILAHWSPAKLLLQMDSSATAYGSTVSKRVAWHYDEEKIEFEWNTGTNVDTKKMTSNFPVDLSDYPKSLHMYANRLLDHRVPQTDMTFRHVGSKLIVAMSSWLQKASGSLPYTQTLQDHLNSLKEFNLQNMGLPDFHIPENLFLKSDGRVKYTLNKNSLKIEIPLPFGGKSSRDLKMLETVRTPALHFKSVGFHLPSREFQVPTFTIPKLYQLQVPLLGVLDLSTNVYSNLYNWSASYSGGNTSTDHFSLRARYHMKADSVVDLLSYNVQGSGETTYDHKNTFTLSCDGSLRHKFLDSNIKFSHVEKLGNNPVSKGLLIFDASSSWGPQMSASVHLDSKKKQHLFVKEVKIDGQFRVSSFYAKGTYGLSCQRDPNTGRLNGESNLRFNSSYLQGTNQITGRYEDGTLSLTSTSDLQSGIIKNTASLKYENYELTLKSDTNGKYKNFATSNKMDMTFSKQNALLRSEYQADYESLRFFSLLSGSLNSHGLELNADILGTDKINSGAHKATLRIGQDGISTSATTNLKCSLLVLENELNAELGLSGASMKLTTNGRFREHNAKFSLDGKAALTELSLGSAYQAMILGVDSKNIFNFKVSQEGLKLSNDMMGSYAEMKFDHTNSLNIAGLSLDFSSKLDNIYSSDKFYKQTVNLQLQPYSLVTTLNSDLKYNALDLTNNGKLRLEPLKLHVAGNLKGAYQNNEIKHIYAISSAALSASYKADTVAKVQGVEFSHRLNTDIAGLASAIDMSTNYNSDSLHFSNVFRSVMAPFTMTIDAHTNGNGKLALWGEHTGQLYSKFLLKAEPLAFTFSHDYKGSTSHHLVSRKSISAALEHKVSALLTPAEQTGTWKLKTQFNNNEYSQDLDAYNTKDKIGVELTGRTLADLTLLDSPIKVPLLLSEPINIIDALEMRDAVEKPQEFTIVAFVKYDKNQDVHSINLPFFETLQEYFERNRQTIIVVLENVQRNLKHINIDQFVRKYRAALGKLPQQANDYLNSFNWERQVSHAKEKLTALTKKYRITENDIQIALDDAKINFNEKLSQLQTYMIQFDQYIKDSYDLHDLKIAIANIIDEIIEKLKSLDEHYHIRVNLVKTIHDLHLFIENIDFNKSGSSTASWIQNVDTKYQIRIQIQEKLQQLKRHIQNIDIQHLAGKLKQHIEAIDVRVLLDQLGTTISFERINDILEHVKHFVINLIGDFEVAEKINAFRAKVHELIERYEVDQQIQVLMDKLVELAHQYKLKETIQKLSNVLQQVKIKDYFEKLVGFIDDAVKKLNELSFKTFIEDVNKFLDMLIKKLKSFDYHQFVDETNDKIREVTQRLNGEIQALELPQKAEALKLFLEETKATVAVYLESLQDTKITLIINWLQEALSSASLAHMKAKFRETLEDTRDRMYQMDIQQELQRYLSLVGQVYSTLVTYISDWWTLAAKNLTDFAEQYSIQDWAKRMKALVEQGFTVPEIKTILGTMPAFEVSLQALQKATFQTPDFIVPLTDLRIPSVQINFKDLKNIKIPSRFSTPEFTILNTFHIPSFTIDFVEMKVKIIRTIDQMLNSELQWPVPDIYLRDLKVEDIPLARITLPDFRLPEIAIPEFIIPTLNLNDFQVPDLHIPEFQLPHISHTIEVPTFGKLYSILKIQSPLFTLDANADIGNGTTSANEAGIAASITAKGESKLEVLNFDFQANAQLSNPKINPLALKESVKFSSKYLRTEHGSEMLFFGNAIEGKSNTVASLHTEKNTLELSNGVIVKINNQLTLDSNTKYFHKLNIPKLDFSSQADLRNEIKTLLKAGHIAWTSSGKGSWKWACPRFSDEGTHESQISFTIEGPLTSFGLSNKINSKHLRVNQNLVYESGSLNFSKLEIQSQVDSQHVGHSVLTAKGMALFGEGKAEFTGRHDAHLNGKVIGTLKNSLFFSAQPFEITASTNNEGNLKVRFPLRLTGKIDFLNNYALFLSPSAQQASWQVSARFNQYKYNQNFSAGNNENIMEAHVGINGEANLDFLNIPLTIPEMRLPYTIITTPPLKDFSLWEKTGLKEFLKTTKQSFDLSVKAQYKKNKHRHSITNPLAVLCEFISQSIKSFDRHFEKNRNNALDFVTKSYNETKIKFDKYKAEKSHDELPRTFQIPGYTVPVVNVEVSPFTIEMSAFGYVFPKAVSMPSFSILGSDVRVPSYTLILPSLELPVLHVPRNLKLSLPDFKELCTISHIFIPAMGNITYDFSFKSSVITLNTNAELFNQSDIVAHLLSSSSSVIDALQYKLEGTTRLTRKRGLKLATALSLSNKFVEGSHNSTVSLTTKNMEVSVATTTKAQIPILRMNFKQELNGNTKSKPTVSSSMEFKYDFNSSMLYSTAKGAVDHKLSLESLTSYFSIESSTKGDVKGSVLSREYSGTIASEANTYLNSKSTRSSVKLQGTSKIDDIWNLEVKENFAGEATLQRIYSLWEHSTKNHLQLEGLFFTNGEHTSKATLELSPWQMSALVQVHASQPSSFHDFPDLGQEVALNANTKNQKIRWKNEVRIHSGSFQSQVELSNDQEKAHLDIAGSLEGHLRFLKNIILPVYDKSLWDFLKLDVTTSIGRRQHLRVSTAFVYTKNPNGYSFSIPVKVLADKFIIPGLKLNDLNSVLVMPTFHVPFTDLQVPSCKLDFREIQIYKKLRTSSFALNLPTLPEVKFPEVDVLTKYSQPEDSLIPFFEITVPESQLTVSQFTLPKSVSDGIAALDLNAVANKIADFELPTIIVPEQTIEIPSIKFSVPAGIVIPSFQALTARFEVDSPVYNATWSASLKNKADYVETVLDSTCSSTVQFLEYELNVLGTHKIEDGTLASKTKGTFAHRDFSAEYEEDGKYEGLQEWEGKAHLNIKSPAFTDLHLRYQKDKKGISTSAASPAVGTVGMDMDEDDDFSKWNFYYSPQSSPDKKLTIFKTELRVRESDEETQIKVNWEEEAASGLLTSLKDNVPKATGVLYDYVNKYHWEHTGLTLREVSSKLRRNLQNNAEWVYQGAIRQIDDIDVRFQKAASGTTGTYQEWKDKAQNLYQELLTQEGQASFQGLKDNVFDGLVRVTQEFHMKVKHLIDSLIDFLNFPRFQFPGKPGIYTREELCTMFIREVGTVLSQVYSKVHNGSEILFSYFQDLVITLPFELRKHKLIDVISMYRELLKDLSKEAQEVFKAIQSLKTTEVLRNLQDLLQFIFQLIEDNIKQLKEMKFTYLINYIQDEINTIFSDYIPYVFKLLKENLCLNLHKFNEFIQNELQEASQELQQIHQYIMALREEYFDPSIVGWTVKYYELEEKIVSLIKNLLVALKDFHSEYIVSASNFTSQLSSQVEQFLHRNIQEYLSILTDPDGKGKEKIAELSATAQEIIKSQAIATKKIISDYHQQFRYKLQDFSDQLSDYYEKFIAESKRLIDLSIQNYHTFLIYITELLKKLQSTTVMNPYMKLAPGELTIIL
Description: To directly examine protein-protein interactions between LDL and ALK1, surface plasmon resonance (SPR) was used with LDL immobilized to the chip and purified fragments of the Fc-tagged ectodomains for LDLR and ALK1 as analytes. […] To test if LDLR and ALK1 compete for binding to LDL, immobilized LDL was pre-bound with ALK1 or LDLR ectodomains, followed by the addition of the other ectodomain. The binding of […] was not altered when the LDL surface was pretreated with ALK1^ecto (FIG. 2C) or if LDL was pretreated with LDLR^ecto (FIG. 2D).

[4] = molecular target: T1, ALK1-fragment crystallizable region …; assay: fluorescence polarization (Fp), recombinant ALK1-Fc and fluorescein labelled peptide
Description: FIG. 8 depicts development of a fluorescence polarization (Fp) assay of ALK1 binding to ApoB100 peptide Site 1. In order to measure binding affinities of ApoB100 to ALK1 and to facilitate screening molecules that block this interaction, a Fp assay was developed using recombinant ALK1-Fc and an HPLC purified fluorescein labelled peptide, -SEQ ID NO: 8 […] with G being an N-terminal linker to fluorescein and the C-terminal L amidated.

T1 sequence (P37023 22-118): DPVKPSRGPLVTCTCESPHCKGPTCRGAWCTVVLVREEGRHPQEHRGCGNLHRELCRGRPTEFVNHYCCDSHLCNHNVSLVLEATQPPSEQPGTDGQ

Row | Binder | binding result [2] | also measured
1 | EQIQDDCTGDEDYTY [ApoB100 Site 1 15mer peptide EQIQDDCTGDEDYTY] | – | binding result [1]: binds
2 | QDDCTGDED (also called QDDCTGDED) [ApoB100 Site 1] | binds | –
3 | Fc-tagged ectodomain of LDLR (Fc fusion, not shown: a dimerising Fc or GST, extracellular domain; also called LDLR^ecto) not shown | – | Kd [3]: 0.007 µM
4 | fluorescein-GQDDCTGDEDYTYLIL-NH2 (also called HPLC purified fluorescein labelled peptide) [fluorescein labelled ApoB100 peptide Site 1, GQDDCTGDEDYTYLIL] | – | Kd [4]: 2.45 µM

Now from value to binder, other results behind:

Row | binding result [2] | Binder | also measured
5 | binds | HRDFSAEYEED (also called HRDFSAEYEED) [ApoB100 Site 5] | –
6 | binds | RKRGLKLAT [ApoB100 Site 4] | –
